Test results published in publication PMC11952967.

Key:
[1] = target: MUTYH W131* (c.309G > A) (human (endogenous in HEK293T))
[2] = target: MUTYH D271G (c.728A > G) (human (endogenous in HEK293T))
[3] = target: MUTYH L111P (c.248T > C) (human (endogenous in HEK293T)); assay: co-IP; MUTYH immunoprecipitated with MUTYH (C-6) antibody on Protein G Dynabeads from nuclear extract of wild-type or homozygous mutant HEK293T cells treated with 0.5 mM H2O2 for 1 h; 1 h at 4°C in PBST; blotted for APE1; APE1 signal quantified relative to MUTYH and normalised to unedited cells
MUTYH L111P (c.248T > C) (human (endogenous in HEK293T)), sequence (Q9UIF7 whole entry, stated change not applied): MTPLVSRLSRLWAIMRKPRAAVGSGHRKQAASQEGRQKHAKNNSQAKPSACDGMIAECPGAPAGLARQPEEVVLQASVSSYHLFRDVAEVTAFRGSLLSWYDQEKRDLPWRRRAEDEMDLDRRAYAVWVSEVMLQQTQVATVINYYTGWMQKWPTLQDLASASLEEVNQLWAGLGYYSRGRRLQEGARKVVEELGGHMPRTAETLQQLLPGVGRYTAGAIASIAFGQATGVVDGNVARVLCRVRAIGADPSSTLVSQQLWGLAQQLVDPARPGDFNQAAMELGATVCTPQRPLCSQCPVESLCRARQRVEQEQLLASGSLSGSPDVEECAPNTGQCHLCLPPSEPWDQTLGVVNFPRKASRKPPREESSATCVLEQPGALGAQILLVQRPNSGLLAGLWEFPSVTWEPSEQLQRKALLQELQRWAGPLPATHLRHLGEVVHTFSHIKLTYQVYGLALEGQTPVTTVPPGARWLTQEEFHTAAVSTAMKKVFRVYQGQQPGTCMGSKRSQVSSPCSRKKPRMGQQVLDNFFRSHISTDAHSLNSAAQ

[4] = target: MUTYH W131* (c.309G > A) (human (endogenous in HEK293T)); assay: as above
[5] = target: MUTYH D271G (c.728A > G) (human (endogenous in HEK293T)); assay: as above
[6] = target: MUTYH L296L (c.802C > T) (human (endogenous in HEK293T)); assay: as above
MUTYH L296L (c.802C > T) (human (endogenous in HEK293T)), sequence (Q9UIF7 whole entry): as the sequence (Q9UIF7 whole entry, stated change not applied) above

MUTYH D271G (c.728A > G) (human (endogenous in HEK293T)), sequence (Q9UIF7 whole entry, stated change not applied): as above

8-oxoG•[O] repair efficiency (average fold-change in MFI of EGFP+ cells compared to that of unedited HEK293T cells), homozygous W131* clones (fold of unedited HEK293T cells) [1]: 0.34 | 8-oxoG•[O] repair efficiency (average fold-change in MFI of EGFP+ cells compared to that of unedited HEK293T cells), homozygous D271G clones (fold of unedited HEK293T cells) [2]: 0.56 | APE1 signal relative to MUTYH in the MUTYH immunoprecipitate, normalised to wild type (relative to wild-type levels) [3]: 0.82 | APE1 signal relative to MUTYH in the MUTYH immunoprecipitate, normalised to wild type (relative to wild-type levels) [4]: 0.21 | APE1 signal relative to MUTYH in the MUTYH immunoprecipitate, normalised to wild type (relative to wild-type levels) [5]: 0.29 | APE1 signal relative to MUTYH in the MUTYH immunoprecipitate, normalised to wild type (relative to wild-type levels) [6]: 0.8
Substance: APE1 (apurinic/apyrimidinic endodeoxyribonuclease 1) (from UniProt P27695 1-318) (enzyme)
